Data as given in the DeepSol protein solubility set.

Experiment: soluble on expression in E. coli; label from the status in PepcDB or PDB records

| Sequence | soluble on expression in E. coli |
| --- | --- |
| MFIPSIYLHQQLHYCKTAILNWSRKMALSRQKFTFERLRRFTLPEGKKQTFLWDADVTTLACRATSGAKAFVFQSVYAGKTLRMTIGNINDWKIDDARAEARRLQTLIDTGIDPRIAKAVKIAEAESLQAESRKTKVTFSVAWEDYLQELRTGISAKTKRPYSTRYIADHINLSSRGGESKKRGQGPTSAGPLASLLNLPLSELTPDYIAAWLSTERQNRPTVTAHAYRLLRAFIKWSNYQKKYQGIIPGDLAQDYNVRKMVPVSASKADDCLQKEQLKSWFSAVRSLNNPIASAYLQVLLLTGARREEIASLRWSDVDFKWSSMRIKDKIEGERIIPLTPYVSELLNVLAQSPNSDVNKEGWVFRSNSKSGKIIEPRSAHNRALVLAELPHISLHGLRRSFGTLAEWVEVPTGIVAQIMGHKPSALAEKHYRRRPLDLLRKWHEKIETWILNEAGITIKNNVDMR | soluble |
| MFIPVIMAGGSGSRLWPLSRSAFPKQFLSLDSSSQHTMLQATIERLQGLPIAEPIVISNEDHRFIVAEQIRRYGKKSRIILEPAGRNTAPAIALAAFTAIEQEDDPVLLVLAADHFVKNKSAFQAAISQAAQQAEAGKLATFGIVPTTPETGYGYIHRGEEVTQGTYEINSFVEKPQLNIAEQYLASGEYYWNSGCFMFKASVFLNELKQHSPEIYRQCELAMQGLSHDYDFIRVGVEEFLKCPDDSIDYAVMEHTKLGVVVSMDAGWSDVGSWSALWEVSDKDADGNVCQGDAILSGTSNCYIYAPNKLVAAVGLKDIVVVETKDAVLVADKNQVQEVKKIVEHLKAENRAEYREHRERYRPWGKSDAIDKGERYKVNRITVEPGKKQSLQMHYHRAEHWVVVSGTAKVTCEGNVKVITENQSLYIPIGTNHMIENPGKIPLELIEIQSGSYLNEDDVVRFEDK | not soluble |
| MFIVLNAPVRGRYCAPMTQFASPVLHSLLDTDAYKLHMQQAVFHHYYDVHVAAEFRCRGDDLLGIYADAIREQIQAMQHLRLQDDEYQWLSALPFFKADYLNWLREFRFNPEQVTVSNDNGKLDIRLSGPWREVILWEVPLLAVISEMVHRYRSPQADVAQALDTLESKLVDFSALTAGLDMSRFHLMDFGTRRRFSREVQETIVKRLQQESWFVGTSNYDLARRLSLTPMGTQAHEWFQAHQQISPDLANSQRAALAAWLEEYPDQLGIALTDCITMDAFLRDFGVEFASRYQGLRHDSGDPVEWGEKAIAHYEKLGIDPQSKTLVFSDNLDLRKAVELYRHFSSRVQLSFGIGTRLTCDIPQVKPLNIVIKLVECNGKPVAKLSDSPGKTICHDKAFVRALRKAFDLPHIKKASMAGDPLEHHHHHH | not soluble |
| MFKAIVSAATLRDALDSVSVLVDECKIRLNEESLSIRAVDPANVGMVDLTLDAAAFESYEAHGGVIGVNLSRLEEVAGMAGAGDLIHLTLDEETRKLNIRIDGLSYTLALIDPDSIRQEPDIPDLDLAANIVLEGTHLDRGIKAADMVSDHIRLRVDGAEETFHIEAEGDTDDVDLSLPPADLISIEAGAADSLFSLDYLKDMNKAIPTDAEVTVELGEEFPVKLHYQIAEGMGTITYMLAPRIQSD | soluble |
| MFKRETKDFINIDPLQTGGKLTEEARQALLEWGDGYSVCDFCTTGRLDEIKTPPIHDFIHNQLPKFLGCDVARVTNGAREAKFAVMHSLAKKDAWVVMDENCHYSSYVAAERAGLNIALVPKTDYPDYAITPENFAQTIEETKKRGEVVLALITYPDGNYGNLPDVKKIAKVCSEYDVPLLVNGAYAIGRMPVSLKEIGADFIVGSGHKSMAASGPIGVMGMKEEWAEIVLRRSEKYKNKEVELLGCTARGATIITLMASFPHVRERIKRWDEEVEKARRFAAEMEKLGIKQLGDNPHNHDLMFFHAEVLYEISKKAKGGRFFLYRELKSRKIHGIKPGLTRYFKLSTYGLSDEEVDYVLNAFKEIIEKYS | soluble |
| MFLPKFNPIRSFSPILRAKTLLRYQNRMYLSTEIRKAIEDAIESAPVVLFMKGTPEFPKCGFSRATIGLLGNQGVDPAKFAAYNVLEDPELREGIKEFSEWPTIPQLYVNKEFIGGCDVITSMARSGELADLLEEAQALVPEEEEETKDR | soluble |
| MFLRLFKYLWPERYLPEIPAQDPFDENPPPCGPGRVGVLLVNLGTPDEPTRGAIRRYLGEFLSDPRVIEIPRYLWMPILHGLVLAMRPKKLAPRYAGIWMEEGSPLLVYSQRQAAGVRQGLAARGVHAEVELAMRYGKPSIPAAITALRERGCDHILAVPLYPQYAASTTATVVDAVTRHAGRLRDQPALRFVKRFHNDPAYVEAQAGRIAEFWQAHGRPQKLVMSFHGLPRYSIELGDPYYRDCLDTARLLRERLGLREDEVEVTFQSRFGSARWLEPYTEPTLAELARQGVTEVDVVCPGFVADCLETLEEISQECRDAFVAAGGRQFRYIPALNDCPPWIEGLTDLVERQLRGWPTGNP | not soluble |
| MFLSVFELFKIGIGPSSSHTMGPMTAANMFLREIMRCNFLRSSHTGISHIRVYLYGSLAFTGVGHATDRAVILGLLGEEAATVNPDNIDILLEKVTREKKVQPDGHPAYWFNLQSDLIFKRKEVLPGHTNGLAFEGLDADGNVLLRQTYYSIGGGFVVTEDELNCINGNTQSKTSKVPYPFDSARKMLSMAEKSGLSIAEMKRLNEETKMERSALNTGLDNIFSAITKCIDRGLSQEGELPGGLRVSRRAKKLYETLLENQKKNRNYPLLANDWLSVYAIAVNEENAAGGRVVTAPTNGAAGVVPAVLRYYLQFNDNSDQEGIHNFLLTAAAIGGVIKHNASISGAEVGCQGEVGTASSMAAAGLTAVLGGTPAQIENAAEIALEHHLGMTCDPVAGLVQIPCIERNAMGAVKAVTASSLALHGNGKHFVSLDACIETMRQTGHDMSERYKETSKAGLAVNAISC | not soluble |
| MFNKVSVIGLGYIGLPTAAVLASRGLDVVGVDVNAHAVDTINKGEIHIVEPDLDIVVRSAVMTGKLKATLTAEPADAFLVAVPTPFKGDNHEPDLSYIEAAAKTIAPVLAKGNLVVLESTSPVGTTEKLAQWLAEARPDLTFPQQKGIAADVKIAYCPERVLPGYVLQELVSNDRVIGGVSKACSEKAVALYKTFVKGECIVTNARTAEMAKLTENSFRDVNIAFANELSLVCNKLKINVWELIRLANRHPRVSILNPGPGVGGHCIAVDPWFIVNSCPDEAQLIRTAREVNDGKPHWVVDQVKQAADQFKKPIIACLGLAFKADIDDLRESPALDITKHLAESKVGQLLAVEPNITELPSKLAKQGIELVSLERALELANIVVVLVDHKEFKAADKTEFAKKVVIDTRGVVA | not soluble |
| MFNTTPINIDKWLKENEGLLKPPVNNYCLHKGGFTVMIVGGPNERTGYHINPTPEWFYQKKGSMLLKVVDETDAEPKFIDIIINEGDSYLLPGNVPHSPVRFADTVGIVVEQDRPGGENDKIRWYCSHCRQVVHESELQMLDLGTQVKEAILDFENDVEKRTCFHCKTLNYARPQSN | soluble |
| MFPLNFHYEDVLRQDLLLKLNYANVMEVPGLCEIRVVPKAPYNFIIKNGKLAMEIPCGQKFIQTQRGSTGKSFRSNPFLGSNKDKGYVSDLARQSTLRGHGMSNFLVRILTVMSLLDFPVEIRKNSIQFSMETEFCEFSPELEDHFEIFEHIRGFNVTIITSANTQDETLLLWSGFLQKDEGETQLEHHHHHH | not soluble |
| MFPVNCYVLWDDTKEAVVIDPGCFYEEEKQALKKFILTNELTVKHLLNTHLHLDHIFGNPFMLKEFGLSAEANKADEFWIDEAPKQSRMFGFQLQEEPVPLGKYLHDGDIITFGHTKLEAIHVPGHSPGSLVYYCKEENCMFSGDVLFQGSIGRADLSGGNFDELIDHICSRLFVLPNETVVYPGHGAPTTIGMEKAENPFFR | not soluble |
| MFRAMSTRKIHGGYEKLGDEEARLKRVSSVPASVYGHSRNPVQEVKKTPTAKPTGGSVHPLFSFFDVHFQRKKKNTAKKKSLATAKPEFARYMEYVREGGVWDPSSNAPVIHYR | not soluble |
| MFRISLEEFEGPLDLLLFFIKRDELDIYNIPISKITGDFIAYIHAMRRLNLEVAAEFIYMASMLMSIKARMLLPRAEPVDGEADEFDPRTELVQRLLEYKRIKEGASELELMALDRERMFPRGYFEELEPAVIDEMDEPVNRPTLYHLMLAYQSVLDNMPKVRTQNVTDAPVTVEEQSALIMARLGERLQVSFTSLFQEFREAIVIVVTFLAVLELCRNRKISVIVKEGVNDFWISQRDHAE | soluble |
| MFRLEDFNFHNKTVFLRVDLNSPMKDGKIISDARFKAVLPTIRYLIESGAKVVIGTHQGKPYSEDYTTTEEHARVLSELLDQHVEYIEDIFGRYAREKIKELKSGEVAILENLRFSAEEVKNKPIEECEKTFLVKKLSKVIDYVVNDAFATAHRSQPSLVGFARIKPMIMGFLMEKEIEALMRAYYSKDSPKIYVLGGAKVEDSLKVVENVLRRERADLVLTGGLVANVFTLAKGFDLGRKNVEFMKKKGLLDYVKHAEEILDEFYPYIRTPVDFAVDYKGERVEIDLLSENRGLLHQYQIMDIGKRTAEKYREILMKARIIVANGPMGVFEREEFAIGTVEVFKAIADSPAFSVLGGGHSIASIQKYGITGITHISTGGGAMLSFFAGEELPVLRALQISYEKFKEVVK | soluble |
| MFRTAETSRDTLITTAYRLHRTRWRILEPYRRLKNALKKLQEDYLKSKEANALMRYVKLGQSVREVAMLEKQYWKLLNIPAQEGTEDANCYVVKIIELLEDTPTQLPPTRGIGALLQSTIGKPAEANVDTVLHDSLKARKSEDLVKECEGLYAQLYRLTKKYLGLRRLIKELHDKYEATRMFPIVPRYAMLKKMIKATLRAPEFADICHEQTE | not soluble |
| MFSIDDVAKQAQSLAGKGYETPKSNLPSVFRDMKYADYQQIQFNHDKAYWNNLKTPFKLEFYHQGMYFDTPVKINEVTATAVKRIKYSPDYFTFGDVQHDKDTVKDLGFAGFKVLYPINSKDKNDEIVSMLGASYFRVIGAGQVYGLSARGLAIDTALPSGEEFPRFKEFWIERPKPTDKRLTIYALLDSPRATGAYKFVVMPGRDTVVDVQSKIYLRDKVGKLGVAPLTSMFLFGPNQPSPANNYRPELHDSNGLSIHAGNGEWIWRPLNNPKHLAVSSFSMENPQGFGLLQRGRDFSRFEDLDDRYDLRPSAWVTPKGEWGKGSVELVEIPTNDETNDNIVAYWTPDQLPEPGKEMNFKYTITFSRDEDKLHAPDNAWVQQTRRSTGDVKQSNLIRQPDGTIAFVVDFTGAEMKKLPEDTPVTAQTSIGDNGEIVESTVRYNPVTKGWRLVMRVKVKDAKKTTEMRAALVNADQTLSETWSYQLPANEVEHHHHHH | soluble |
| MFSLSKTLAALLLCSAASLAQAAETAICYNCPPEWADWGTQLKAIADSTSVQVPLDNKNSGQALAQIVAEQAAPVADVVYYGVTFGLQAQKAGVVDTYKPKHWDDIPAGLKDPQGHWFAIHSGTLGIMVNVDALGGLPVPQSWADLLKPEYKGMVGYLDPSSAFVGYVSAVAINQAMGGSLDNFGPAIDYFQKLAKNSPIVPKQTAYARALSGELPILVDYDFNAYRARYKDKANVAFVIPKEGTIGVPYVMSMVAKAPHRANAEKVLDFVLSDAGQALWAKAYLRPVRSKMPADVAAQFLPDSDYARAGVVDYQRMAAVQEAFAARYLREVK | not soluble |
| MFSRPGLPVEYLQVPSASMGRDIKVQFQGGGPHAVYLLDGLRAQDDYNGWDINTPAFEEYYQSGLSVIMPVGGQSSFYTDWYQPSQSNGQNYTYKWETFLTREMPAWLQANKGVSPTGNAAVGLSMSGGSALILAAYYPQQFPYAASLSGFLNPSEGWWPTLIGLAMNDSGGYNANSMWGPSSDPAWKRNDPMVQIPRLVANNTRIWVYCGNGTPSDLGGDNIPAKFLEGLTLRTNQTFRDTYAADGGRNGVFNFPPNGTHSWPYWNEQLVAMKADIQHVLNGATPPAAPAAPAALEHHHHHH | soluble |
| MFSSSKLVNAVAQRLLDTIEQGRWVAGQMLPGQRELAEQMEISRPSLREAIMVLETLGVVRSLPGKGVMVLERSEPLREVAAPGEATMEDVLQLRYALEPFIVGIVAQSAGAAEISELRLLLLDLREAVEDGDPQALVEAYTAFHRRLVKLTSNPIFLSVSEQIGSALERSDNLVRRQPEYAEEILQEHDAILRAIRQHDSERASQAMRQHILNEGARLNIDLRLPQV | not soluble |
